Patent US20250282890A1 (TECHNISCHE UNIVERSIT T M NCHEN, published 2025)

How the values were obtained:
[1] = target: T1, human PSMA displayed on the surface of LNCaP cells (human, UniProt Q04609 1-750); assay: flow cytometry on LNCaP cells, IgG1 titrated
T1 construct: Endogenous PSMA on living LNCaP cells; also called PSMA-positive LNCaP cells
Procedure: Flow cytometry was used to analyze affinity and specificity of 5D3-hFabs for PSMA in its physiological environment, i.e., at the surface of living cells. To this end, LNCaP and DU145 cells were used as representatives of PSMA-positive and PSMA-negative cell lines, respectively, in a protocol described previously (Novakova, Belousova et al. (2020), Int. J. Mol. Sci., 21(18):6672). Briefly, cells were treated by three-fold dilution series of 5D3-hFabs in the concentration range 6000 nM-0.42 pM. Bound 5D3-hFabs were detected by the combination of anti-Strep tag antibody and goat anti-mouse secondary antibody conjugated to Alexa Fluor 647. Cell samples were immediately analyzed using a LSRFortessa flow cytometer.
Flow cytometry was used to analyze affinity and specificity of humanized 5D3-IgG1s for PSMA in its physiological environment as described above and data are shown in FIG. 11 and Table 2.

[2] = target: T2, recombinant human PSMA (prostate-specific membrane antigen), biotin-tagged (human, UniProt Q04609 44-750, biotin tag (site not stated)); assay: native ELISA, streptavidin-captured biotin-tagged PSMA, IgG1 titrated
T2 construct: also called biotin-tagged PSMA; biotin-labelled PSMA
T2 sequence (Q04609 44-750 limits assumed): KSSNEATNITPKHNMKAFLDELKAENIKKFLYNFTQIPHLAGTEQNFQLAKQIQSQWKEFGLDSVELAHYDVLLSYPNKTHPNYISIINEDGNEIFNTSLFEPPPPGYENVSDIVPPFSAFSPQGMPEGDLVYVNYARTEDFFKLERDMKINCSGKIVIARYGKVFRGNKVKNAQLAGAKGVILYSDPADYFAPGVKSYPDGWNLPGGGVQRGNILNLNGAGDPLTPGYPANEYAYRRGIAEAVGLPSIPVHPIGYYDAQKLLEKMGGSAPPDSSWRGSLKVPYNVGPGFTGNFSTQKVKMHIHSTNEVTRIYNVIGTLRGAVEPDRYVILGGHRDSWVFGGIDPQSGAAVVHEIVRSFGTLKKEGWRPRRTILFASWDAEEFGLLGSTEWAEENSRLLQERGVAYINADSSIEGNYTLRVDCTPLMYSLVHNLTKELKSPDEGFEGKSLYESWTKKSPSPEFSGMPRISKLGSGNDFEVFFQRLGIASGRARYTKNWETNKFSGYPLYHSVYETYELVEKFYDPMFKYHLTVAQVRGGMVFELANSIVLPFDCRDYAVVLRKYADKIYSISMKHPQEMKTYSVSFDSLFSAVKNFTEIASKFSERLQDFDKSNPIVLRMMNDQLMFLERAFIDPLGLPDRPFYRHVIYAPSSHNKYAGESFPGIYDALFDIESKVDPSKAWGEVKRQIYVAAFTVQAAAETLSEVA
Procedure: Native ELISA was used to measure affinity of 5D3-hFabs for human PSMA. Experiments were performed in 96-well MaxiSorp plates coated with streptavidin complexed with biotin-tagged PSMA. Purified 5D3-hFabs were applied in 2-fold dilution series in the concentration range of 2000 nM-0.95 pM and goat anti-human secondary antibody conjugated to horseradish peroxidase, together with the TMB substrate, was used for 5D3-hFabs detection. Data were processed using a Prism 6 software (GraphPad, San Diego, CA) and binding curves fitted using an embedded non-linear curve-fitting algorithm (FIG. 4, Table 1). Affinity of all variants tested was in a single-digit nanomolar range (1.8-2.7 nM) and virtually identical to the parent murine and chimeric Fabs, documenting successful humanization results.
Native ELISA was used to measure affinity of humanized 5D3-IgG1s for human PSMA in an experimental setup described above and binding curves together with corresponding KD values shown in FIG. 10 and Table 2, respectively. Affinity of all variants tested was in a picomolar range (260-380 pM) and virtually identical to the parent murine and chimeric full-length IgG1s, documenting successful outcome of the humanization process.

[3] = target: T2, recombinant human PSMA …; assay: ELISA on plates coated with recombinant PSMA, two-fold dilution series, goat anti-human-HRP and TMB
[4] = target: T2, recombinant human PSMA …; assay: ELISA on plates coated with recombinant PSMA, column head 'ELISA (nM)'
Procedure: (§1) FIG. 16—Affinities of optimized full-length antibodies determined by ELISA. Plates coated with recombinant PSMA were probed with two-fold dilution series of individual antibodies and binding was visualized using goat anti-human secondary antibody conjugated to horseradish peroxidase together with the TMB substrate. Binding curves were fitted using a non-linear regression algorithm.
(§2) Also, the affinity of the optimized humanized 5D3 variants was determined by ELISA (FIG. 16, Table 4).

[5] = target: T2, recombinant human PSMA …; assay: PSMA ELISA on plates coated with recombinant PSMA, two-fold dilution series, goat anti-human-HRP and TMB
[6] = target: T2, recombinant human PSMA …; assay: as above; remark: listed apart in the source
Procedure: as §1, §2

T1 sequence (Q04609 whole entry): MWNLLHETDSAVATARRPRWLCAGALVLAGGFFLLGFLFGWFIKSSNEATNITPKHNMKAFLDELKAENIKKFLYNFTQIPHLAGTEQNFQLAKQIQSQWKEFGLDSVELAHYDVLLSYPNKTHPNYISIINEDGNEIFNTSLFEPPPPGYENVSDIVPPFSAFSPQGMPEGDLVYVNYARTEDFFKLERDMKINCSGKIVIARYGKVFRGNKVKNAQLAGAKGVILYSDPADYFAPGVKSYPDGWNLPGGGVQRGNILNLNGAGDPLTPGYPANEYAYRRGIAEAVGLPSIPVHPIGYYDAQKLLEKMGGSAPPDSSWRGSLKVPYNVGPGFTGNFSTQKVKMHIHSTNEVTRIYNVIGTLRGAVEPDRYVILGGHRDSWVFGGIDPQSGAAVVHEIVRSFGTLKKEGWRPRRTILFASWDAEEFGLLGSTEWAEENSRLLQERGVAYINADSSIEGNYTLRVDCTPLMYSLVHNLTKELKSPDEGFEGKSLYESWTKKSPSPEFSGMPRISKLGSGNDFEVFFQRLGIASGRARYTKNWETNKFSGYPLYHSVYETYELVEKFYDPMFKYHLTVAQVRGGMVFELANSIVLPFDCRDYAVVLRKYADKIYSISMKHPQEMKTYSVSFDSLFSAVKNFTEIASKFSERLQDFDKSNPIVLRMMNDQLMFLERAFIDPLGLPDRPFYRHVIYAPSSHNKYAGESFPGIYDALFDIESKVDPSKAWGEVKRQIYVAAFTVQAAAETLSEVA

Kd [1]	Kd [2]	EC50 (read off the curve) [3]	Kd [4]	EC50 (read off the curve) [5]	EC50 (read off the curve) [6]	Binder
0.64 nM	0.26 nM	~0.3 nM				2-5D3-IgG1 (antibody, V domains shown, also called full-length humanized 5D3 version 2) VH: QVQLVQSGAEVKKPGASVKVSCKASGYAFNTSWMNWVRQAPGQGLEYIGRIYPGDGDTNYNGKFKGKATMTADKSISTVYMEVRRLRSDDTAVYYCARGEWYLYYFDYWGQGTLVTVSS VL: DIQMTQSPSSLSASVGDRVTITCSASQGINNFLTWYQHEPGKALKLLIYYTSSLHSGVPSRFSGSGSGTDYTLTISTLQPEDFATYYCQQYSNLPFTFGGGTKVEIK
0.56 nM	0.38 nM	~0.4 nM	0.25 nM	~0.4 nM	~0.5 nM	6-5D3-IgG1 (antibody, V domains shown, N-glycosylation at VH N30, also called h5D3; humanized 5D3) VH: EVQLVESGGGLVQPGGSLRLSCAASGYAFNTSWMNWVRQAPGKGLEWISRIYPGDGDTNYNGKFKGKATISADKSKNTLYLQMNSLRAEDTAVYYCARGEWYLYYFDYWGQGTLVTVSS VL: DIQMTQSPSSLSASVGDRVTITCSASQGINNFLTWYQQKPGKALKLLIYYTSSLHSGVPSRFSGSGSGTDYTLTISSLQPEDFATYYCQQYSNLPFTFGQGTKVEIK
0.77 nM	0.39 nM	~0.4 nM				5-5D3-IgG1 (antibody, V domains shown, also called full-length humanized 5D3 version 5) VH: QVQLVQSGPEVKKPGASVRLSCKASGYAFNTSWMNWVRQAPGQGLEWIGRIYPGDGDTNYNGKFKGKATMTADKSTNTAYMELRSLRSDDTAVYYCGRGEWYLYYFDYWGQGTLVTVSS VL: DIQMTQSPSSVSASVGDRVTISCSASQGINNFLTWYQQKLGKALQLLIYYTSSLHSGVPSRFSGSGSGTDYTLTISSLQPEDFATYYCQQYSNLPFTFGPGTKVDIK
			0.35 nM		~0.4 nM	h5D3 variant HVg7 (antibody, human IgG1, V domains shown, Full-length human IgG1 kappa variant of h5D3 (antibody 6)) VH: EVQLVESGGGLVQPGGSLRLSCAASGYAFQTSWMNWVRQAPGKGLEWISRIYPGDGDTNYNGKFKGKATISADKSKNTLYLQMNSLRAEDTAVYYCARGEWYLYYFDYWGQGTLVTVSS VL: DIQMTQSPSSLSASVGDRVTITCSASQGINNFLTWYQQKPGKALKLLIYYTSSLHSGVPSRFSGSGSGTDYTLTISSLQPEDFATYYCQQYSNLPFTFGQGTKVEIK
			0.06 nM		~0.2 nM	h5D3 variant HVg5 (antibody, human IgG1, V domains shown, Full-length human IgG1 kappa variant of h5D3 (antibody 6)) VH: EVQLVESGGGLVQPGGSLRLSCAASGYAFQTSWMNWVRQAPGKGLEWISRIYPGEGSTNYNAKFKGKATISADKSKNTLYLQMNSLRAEDTAVYYCARGEWYLYYFDYWGQGTLVTVSS VL: DIQMTQSPSSLSASVGDRVTITCSASQGINNFLTWYQQKPGKALKLLIYYTSSLHSGVPSRFSGSGSGTDYTLTISSLQPEDFATYYCQQYSNLPFTFGQGTKVEIK
			0.47 nM	~0.5 nM		h5D3 variant LVg2HVg2 (antibody, human IgG1, V domains shown, Full-length human IgG1 kappa variant of h5D3 (antibody 6)) VH: EVQLVESGGGLVQPGGSLRLSCAASGYAFQTSWMNWVRQAPGKGLEWISRIYPGDADTNYNAKFKGKATISADKSKNTLYLQMNSLRAEDTAVYYCARGEWYLYYFDYWGQGTLVTVSS VL: DIQMTQSPSSLSASVGDRVTITCSASQGIENFLTWYQQKPGKALKLLIYYTSSLHSGVPSRFSGSGSGTDYTLTISSLQPEDFATYYCQQYSNLPFTFGQGTKVEIK
			0.29 nM	~0.4 nM		h5D3 variant LVg2 (antibody, human IgG1, V domains shown, Full-length human IgG1 kappa variant of h5D3 (antibody 6)) VH: EVQLVESGGGLVQPGGSLRLSCAASGYAFNTSWMNWVRQAPGKGLEWISRIYPGDGDTNYNGKFKGKATISADKSKNTLYLQMNSLRAEDTAVYYCARGEWYLYYFDYWGQGTLVTVSS VL: DIQMTQSPSSLSASVGDRVTITCSASQGIENFLTWYQQKPGKALKLLIYYTSSLHSGVPSRFSGSGSGTDYTLTISSLQPEDFATYYCQQYSNLPFTFGQGTKVEIK
			0.5 nM		~0.5 nM	h5D3 variant LVg2HVg4 (antibody, human IgG1, V domains shown, Full-length human IgG1 kappa variant of h5D3 (antibody 6)) VH: EVQLVESGGGLVQPGGSLRLSCAASGYAFQTSWMNWVRQAPGKGLEWISRIYPGEGDTNYNAKFKGKATISADKSKNTLYLQMNSLRAEDTAVYYCARGEWYLYYFDYWGQGTLVTVSS VL: DIQMTQSPSSLSASVGDRVTITCSASQGIENFLTWYQQKPGKALKLLIYYTSSLHSGVPSRFSGSGSGTDYTLTISSLQPEDFATYYCQQYSNLPFTFGQGTKVEIK
			0.2 nM		~0.4 nM	h5D3 variant LVg2HVg5 (antibody, human IgG1, V domains shown, Full-length human IgG1 kappa variant of h5D3 (antibody 6)) VH: EVQLVESGGGLVQPGGSLRLSCAASGYAFQTSWMNWVRQAPGKGLEWISRIYPGEGSTNYNAKFKGKATISADKSKNTLYLQMNSLRAEDTAVYYCARGEWYLYYFDYWGQGTLVTVSS VL: DIQMTQSPSSLSASVGDRVTITCSASQGIENFLTWYQQKPGKALKLLIYYTSSLHSGVPSRFSGSGSGTDYTLTISSLQPEDFATYYCQQYSNLPFTFGQGTKVEIK
			0.37 nM		~0.4 nM	h5D3 variant LVg2HVg7 (antibody, human IgG1, V domains shown, Full-length human IgG1 kappa variant of h5D3 (antibody 6)) VH: EVQLVESGGGLVQPGGSLRLSCAASGYAFQTSWMNWVRQAPGKGLEWISRIYPGDGDTNYNGKFKGKATISADKSKNTLYLQMNSLRAEDTAVYYCARGEWYLYYFDYWGQGTLVTVSS VL: DIQMTQSPSSLSASVGDRVTITCSASQGIENFLTWYQQKPGKALKLLIYYTSSLHSGVPSRFSGSGSGTDYTLTISSLQPEDFATYYCQQYSNLPFTFGQGTKVEIK
			0.34 nM	~0.4 nM		h5D3 variant HVg2 (antibody, human IgG1, V domains shown, Full-length human IgG1 kappa variant of h5D3 (antibody 6)) VH: EVQLVESGGGLVQPGGSLRLSCAASGYAFQTSWMNWVRQAPGKGLEWISRIYPGDADTNYNAKFKGKATISADKSKNTLYLQMNSLRAEDTAVYYCARGEWYLYYFDYWGQGTLVTVSS VL: DIQMTQSPSSLSASVGDRVTITCSASQGINNFLTWYQQKPGKALKLLIYYTSSLHSGVPSRFSGSGSGTDYTLTISSLQPEDFATYYCQQYSNLPFTFGQGTKVEIK
			0.36 nM		~0.4 nM	h5D3 variant HVg4 (antibody, human IgG1, V domains shown, Full-length human IgG1 kappa variant of h5D3 (antibody 6)) VH: EVQLVESGGGLVQPGGSLRLSCAASGYAFQTSWMNWVRQAPGKGLEWISRIYPGEGDTNYNAKFKGKATISADKSKNTLYLQMNSLRAEDTAVYYCARGEWYLYYFDYWGQGTLVTVSS VL: DIQMTQSPSSLSASVGDRVTITCSASQGINNFLTWYQQKPGKALKLLIYYTSSLHSGVPSRFSGSGSGTDYTLTISSLQPEDFATYYCQQYSNLPFTFGQGTKVEIK
			2.69 nM	~3 nM		h5D3 variant LVg2HVg3 (antibody, human IgG1, V domains shown, Full-length human IgG1 kappa variant of h5D3 (antibody 6)) VH: EVQLVESGGGLVQPGGSLRLSCAASGYAFQTSWMNWVRQAPGKGLEWISRIYPGEGETNYNAKFKGKATISADKSKNTLYLQMNSLRAEDTAVYYCARGEWYLYYFDYWGQGTLVTVSS VL: DIQMTQSPSSLSASVGDRVTITCSASQGIENFLTWYQQKPGKALKLLIYYTSSLHSGVPSRFSGSGSGTDYTLTISSLQPEDFATYYCQQYSNLPFTFGQGTKVEIK
			0.93 nM	~0.9 nM		h5D3 variant HVg3 (antibody, human IgG1, V domains shown, Full-length human IgG1 kappa variant of h5D3 (antibody 6)) VH: EVQLVESGGGLVQPGGSLRLSCAASGYAFQTSWMNWVRQAPGKGLEWISRIYPGEGETNYNAKFKGKATISADKSKNTLYLQMNSLRAEDTAVYYCARGEWYLYYFDYWGQGTLVTVSS VL: DIQMTQSPSSLSASVGDRVTITCSASQGINNFLTWYQQKPGKALKLLIYYTSSLHSGVPSRFSGSGSGTDYTLTISSLQPEDFATYYCQQYSNLPFTFGQGTKVEIK
